US20220119490A1 (Genentech, published 2022)

Assays:
Assay in all cases: cell surface interaction assay: query ECD tetramerised with fluorescent streptavidin on transfected cells, immunofluorescence
PTPRT expressed on cells = biological target: T1, PTPRT expressed on cells (human, UniProt O14522 26-1441)
T1 construct: whole, on cells
T1 sequence (looked up): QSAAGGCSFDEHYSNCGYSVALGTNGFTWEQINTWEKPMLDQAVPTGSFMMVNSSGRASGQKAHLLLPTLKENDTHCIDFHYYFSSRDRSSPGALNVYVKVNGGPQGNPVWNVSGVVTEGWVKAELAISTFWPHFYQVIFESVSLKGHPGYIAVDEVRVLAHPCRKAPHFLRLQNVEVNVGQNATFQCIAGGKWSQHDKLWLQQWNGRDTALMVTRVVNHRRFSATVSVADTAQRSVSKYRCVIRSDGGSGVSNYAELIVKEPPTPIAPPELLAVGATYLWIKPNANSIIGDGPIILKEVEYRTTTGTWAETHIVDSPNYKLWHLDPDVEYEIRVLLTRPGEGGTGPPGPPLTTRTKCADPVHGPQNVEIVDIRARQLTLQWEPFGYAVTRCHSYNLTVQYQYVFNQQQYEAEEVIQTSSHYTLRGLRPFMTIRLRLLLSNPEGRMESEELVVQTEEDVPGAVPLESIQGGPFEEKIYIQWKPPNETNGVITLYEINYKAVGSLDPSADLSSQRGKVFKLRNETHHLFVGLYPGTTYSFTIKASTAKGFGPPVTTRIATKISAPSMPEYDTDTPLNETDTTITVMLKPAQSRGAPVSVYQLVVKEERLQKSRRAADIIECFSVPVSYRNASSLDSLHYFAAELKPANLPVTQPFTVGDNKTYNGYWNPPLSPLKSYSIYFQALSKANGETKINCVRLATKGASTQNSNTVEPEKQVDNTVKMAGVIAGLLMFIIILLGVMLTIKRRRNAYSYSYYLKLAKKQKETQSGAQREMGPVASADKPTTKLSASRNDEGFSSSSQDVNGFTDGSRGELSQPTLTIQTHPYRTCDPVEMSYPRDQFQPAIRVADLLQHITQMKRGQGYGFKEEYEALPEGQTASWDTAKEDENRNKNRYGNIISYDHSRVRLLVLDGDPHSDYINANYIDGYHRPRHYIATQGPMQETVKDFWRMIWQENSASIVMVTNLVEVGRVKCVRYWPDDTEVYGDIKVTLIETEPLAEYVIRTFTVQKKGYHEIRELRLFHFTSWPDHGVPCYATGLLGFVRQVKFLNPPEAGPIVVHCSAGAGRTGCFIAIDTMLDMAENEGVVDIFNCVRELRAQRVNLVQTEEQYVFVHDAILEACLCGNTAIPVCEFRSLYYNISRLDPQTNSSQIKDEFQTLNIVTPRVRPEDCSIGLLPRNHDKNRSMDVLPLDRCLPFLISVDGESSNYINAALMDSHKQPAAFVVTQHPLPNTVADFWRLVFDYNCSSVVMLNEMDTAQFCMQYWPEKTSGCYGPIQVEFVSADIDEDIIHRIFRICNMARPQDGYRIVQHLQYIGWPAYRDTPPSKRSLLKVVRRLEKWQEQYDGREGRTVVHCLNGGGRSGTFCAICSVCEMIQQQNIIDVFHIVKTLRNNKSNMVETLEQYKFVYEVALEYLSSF
Excerpt: (§1) FIG. 3H is a schematic showing the design of the cell surface interaction assay.
(§2) Experiments shown are representative of two independent assays. […] Scale bar=50 μm.

PTPRM expressed on cells = biological target: T2, PTPRM expressed on cells (human, UniProt P28827 21-1452)
T2 construct: whole, on cells
T2 sequence (P28827 21-1452): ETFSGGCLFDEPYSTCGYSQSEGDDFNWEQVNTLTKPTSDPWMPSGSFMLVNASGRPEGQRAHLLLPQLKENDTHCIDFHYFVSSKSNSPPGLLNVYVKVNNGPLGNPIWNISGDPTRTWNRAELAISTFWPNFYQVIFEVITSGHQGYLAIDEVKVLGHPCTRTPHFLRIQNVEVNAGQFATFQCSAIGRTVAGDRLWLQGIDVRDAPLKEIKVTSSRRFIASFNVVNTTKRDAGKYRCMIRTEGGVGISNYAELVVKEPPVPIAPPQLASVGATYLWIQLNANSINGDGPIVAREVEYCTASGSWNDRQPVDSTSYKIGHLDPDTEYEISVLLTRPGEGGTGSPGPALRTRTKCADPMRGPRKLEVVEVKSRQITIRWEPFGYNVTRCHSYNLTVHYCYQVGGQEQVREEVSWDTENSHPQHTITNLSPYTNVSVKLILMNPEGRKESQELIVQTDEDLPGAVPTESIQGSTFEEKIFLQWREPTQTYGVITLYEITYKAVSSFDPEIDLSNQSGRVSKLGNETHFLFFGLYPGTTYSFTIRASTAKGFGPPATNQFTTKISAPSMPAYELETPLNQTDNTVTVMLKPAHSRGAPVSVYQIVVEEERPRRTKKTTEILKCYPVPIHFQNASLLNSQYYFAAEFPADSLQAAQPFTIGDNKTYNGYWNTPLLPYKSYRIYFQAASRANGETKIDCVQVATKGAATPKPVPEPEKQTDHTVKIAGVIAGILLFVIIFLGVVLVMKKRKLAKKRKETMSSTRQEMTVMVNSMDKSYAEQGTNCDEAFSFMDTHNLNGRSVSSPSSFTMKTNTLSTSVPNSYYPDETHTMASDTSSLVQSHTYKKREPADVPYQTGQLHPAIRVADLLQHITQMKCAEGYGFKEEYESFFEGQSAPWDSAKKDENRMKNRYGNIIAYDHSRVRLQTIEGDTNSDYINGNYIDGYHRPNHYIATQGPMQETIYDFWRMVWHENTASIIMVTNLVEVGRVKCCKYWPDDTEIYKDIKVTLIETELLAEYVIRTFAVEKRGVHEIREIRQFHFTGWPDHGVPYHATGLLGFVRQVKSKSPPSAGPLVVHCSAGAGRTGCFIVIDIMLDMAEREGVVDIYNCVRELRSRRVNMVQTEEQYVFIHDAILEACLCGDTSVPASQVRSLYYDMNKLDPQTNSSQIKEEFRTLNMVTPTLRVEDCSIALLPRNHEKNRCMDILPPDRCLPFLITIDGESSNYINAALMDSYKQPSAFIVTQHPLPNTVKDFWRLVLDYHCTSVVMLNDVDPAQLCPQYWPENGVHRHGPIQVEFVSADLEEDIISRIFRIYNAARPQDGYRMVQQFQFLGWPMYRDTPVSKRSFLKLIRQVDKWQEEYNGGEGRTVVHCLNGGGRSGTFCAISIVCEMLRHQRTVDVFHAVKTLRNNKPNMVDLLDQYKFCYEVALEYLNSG
Excerpt: as §1, §2

PTPRO expressed on cells = biological target: T3, PTPRO expressed on cells (human, UniProt Q16827 30-1216)
T3 construct: whole, on cells
T3 sequence (looked up): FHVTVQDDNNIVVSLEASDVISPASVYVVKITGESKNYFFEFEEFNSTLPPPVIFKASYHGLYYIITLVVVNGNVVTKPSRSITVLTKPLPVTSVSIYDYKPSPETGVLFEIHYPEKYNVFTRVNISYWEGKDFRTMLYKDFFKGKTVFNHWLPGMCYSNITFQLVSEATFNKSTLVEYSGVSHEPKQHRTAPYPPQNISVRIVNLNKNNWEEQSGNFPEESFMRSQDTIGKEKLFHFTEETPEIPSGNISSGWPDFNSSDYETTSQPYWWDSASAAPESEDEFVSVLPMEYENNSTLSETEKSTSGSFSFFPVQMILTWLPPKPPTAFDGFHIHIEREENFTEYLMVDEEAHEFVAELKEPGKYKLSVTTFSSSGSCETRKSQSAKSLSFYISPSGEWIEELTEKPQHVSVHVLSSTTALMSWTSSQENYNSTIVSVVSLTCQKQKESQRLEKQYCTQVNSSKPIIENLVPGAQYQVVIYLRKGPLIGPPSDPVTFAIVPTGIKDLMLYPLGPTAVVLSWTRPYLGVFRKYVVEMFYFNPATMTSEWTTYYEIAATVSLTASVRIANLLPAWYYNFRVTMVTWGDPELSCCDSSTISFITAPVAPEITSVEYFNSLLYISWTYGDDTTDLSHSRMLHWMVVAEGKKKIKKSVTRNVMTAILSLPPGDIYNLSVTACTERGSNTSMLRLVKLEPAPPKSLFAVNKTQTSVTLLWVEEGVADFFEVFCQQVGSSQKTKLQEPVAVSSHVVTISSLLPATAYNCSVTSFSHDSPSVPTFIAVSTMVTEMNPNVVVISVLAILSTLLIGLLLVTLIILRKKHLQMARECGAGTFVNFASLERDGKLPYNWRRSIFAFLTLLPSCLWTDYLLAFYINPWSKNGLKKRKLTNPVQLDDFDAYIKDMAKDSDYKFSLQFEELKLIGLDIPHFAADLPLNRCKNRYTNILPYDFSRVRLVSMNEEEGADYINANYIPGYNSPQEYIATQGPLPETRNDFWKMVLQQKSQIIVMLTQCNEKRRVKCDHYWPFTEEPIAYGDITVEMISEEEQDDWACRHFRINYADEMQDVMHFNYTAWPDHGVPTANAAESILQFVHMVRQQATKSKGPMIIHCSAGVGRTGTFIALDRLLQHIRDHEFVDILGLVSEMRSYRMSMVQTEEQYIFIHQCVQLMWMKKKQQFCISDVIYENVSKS
Excerpt: as §1, §2

PTPRG expressed on cells = biological target: T4, PTPRG expressed on cells (human, UniProt P23470 20-1445)
T4 construct: whole, on cells
T4 sequence (P23470 20-1445): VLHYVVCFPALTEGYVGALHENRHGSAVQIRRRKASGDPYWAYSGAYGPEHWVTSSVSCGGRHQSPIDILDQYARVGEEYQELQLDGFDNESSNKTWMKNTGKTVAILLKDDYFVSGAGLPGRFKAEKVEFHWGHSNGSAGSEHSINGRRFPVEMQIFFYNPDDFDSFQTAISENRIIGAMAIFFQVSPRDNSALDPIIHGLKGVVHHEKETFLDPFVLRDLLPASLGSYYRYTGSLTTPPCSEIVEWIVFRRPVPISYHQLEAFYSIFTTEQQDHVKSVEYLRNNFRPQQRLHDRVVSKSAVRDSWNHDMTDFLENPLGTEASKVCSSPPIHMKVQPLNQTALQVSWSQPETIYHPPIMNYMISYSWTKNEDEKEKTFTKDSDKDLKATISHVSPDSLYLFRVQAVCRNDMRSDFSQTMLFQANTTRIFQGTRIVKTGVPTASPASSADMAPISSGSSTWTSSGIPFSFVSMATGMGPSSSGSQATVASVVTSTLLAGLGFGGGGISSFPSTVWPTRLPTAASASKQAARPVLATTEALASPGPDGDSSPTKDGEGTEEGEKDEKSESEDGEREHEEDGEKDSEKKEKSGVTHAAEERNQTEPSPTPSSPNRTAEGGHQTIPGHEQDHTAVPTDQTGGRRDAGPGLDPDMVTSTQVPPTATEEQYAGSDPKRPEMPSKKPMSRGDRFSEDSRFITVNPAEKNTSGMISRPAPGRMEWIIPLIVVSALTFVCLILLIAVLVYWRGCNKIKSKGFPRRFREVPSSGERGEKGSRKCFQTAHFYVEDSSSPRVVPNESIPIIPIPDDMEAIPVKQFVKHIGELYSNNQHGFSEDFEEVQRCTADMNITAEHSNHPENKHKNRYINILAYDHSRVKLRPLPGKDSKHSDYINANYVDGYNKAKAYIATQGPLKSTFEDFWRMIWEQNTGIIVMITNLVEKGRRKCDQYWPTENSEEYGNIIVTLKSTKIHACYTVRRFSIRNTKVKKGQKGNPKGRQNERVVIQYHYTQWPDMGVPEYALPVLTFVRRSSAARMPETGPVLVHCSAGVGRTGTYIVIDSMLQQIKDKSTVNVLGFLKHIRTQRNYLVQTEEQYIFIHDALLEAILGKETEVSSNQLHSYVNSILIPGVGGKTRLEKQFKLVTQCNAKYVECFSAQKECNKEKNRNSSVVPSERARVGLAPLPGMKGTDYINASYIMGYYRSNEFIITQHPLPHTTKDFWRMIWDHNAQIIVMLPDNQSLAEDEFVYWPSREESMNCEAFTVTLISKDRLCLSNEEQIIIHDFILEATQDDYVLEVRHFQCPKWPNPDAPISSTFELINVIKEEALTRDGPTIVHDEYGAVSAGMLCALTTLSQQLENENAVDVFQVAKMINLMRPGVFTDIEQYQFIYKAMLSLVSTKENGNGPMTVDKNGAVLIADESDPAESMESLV
Excerpt: as §1, §2

[1] = biological target: T5, PTPRZ1 expressed on cells (human, UniProt P23471 25-2315)
T5 construct: whole, on cells
T5 sequence (P23471 25-2315): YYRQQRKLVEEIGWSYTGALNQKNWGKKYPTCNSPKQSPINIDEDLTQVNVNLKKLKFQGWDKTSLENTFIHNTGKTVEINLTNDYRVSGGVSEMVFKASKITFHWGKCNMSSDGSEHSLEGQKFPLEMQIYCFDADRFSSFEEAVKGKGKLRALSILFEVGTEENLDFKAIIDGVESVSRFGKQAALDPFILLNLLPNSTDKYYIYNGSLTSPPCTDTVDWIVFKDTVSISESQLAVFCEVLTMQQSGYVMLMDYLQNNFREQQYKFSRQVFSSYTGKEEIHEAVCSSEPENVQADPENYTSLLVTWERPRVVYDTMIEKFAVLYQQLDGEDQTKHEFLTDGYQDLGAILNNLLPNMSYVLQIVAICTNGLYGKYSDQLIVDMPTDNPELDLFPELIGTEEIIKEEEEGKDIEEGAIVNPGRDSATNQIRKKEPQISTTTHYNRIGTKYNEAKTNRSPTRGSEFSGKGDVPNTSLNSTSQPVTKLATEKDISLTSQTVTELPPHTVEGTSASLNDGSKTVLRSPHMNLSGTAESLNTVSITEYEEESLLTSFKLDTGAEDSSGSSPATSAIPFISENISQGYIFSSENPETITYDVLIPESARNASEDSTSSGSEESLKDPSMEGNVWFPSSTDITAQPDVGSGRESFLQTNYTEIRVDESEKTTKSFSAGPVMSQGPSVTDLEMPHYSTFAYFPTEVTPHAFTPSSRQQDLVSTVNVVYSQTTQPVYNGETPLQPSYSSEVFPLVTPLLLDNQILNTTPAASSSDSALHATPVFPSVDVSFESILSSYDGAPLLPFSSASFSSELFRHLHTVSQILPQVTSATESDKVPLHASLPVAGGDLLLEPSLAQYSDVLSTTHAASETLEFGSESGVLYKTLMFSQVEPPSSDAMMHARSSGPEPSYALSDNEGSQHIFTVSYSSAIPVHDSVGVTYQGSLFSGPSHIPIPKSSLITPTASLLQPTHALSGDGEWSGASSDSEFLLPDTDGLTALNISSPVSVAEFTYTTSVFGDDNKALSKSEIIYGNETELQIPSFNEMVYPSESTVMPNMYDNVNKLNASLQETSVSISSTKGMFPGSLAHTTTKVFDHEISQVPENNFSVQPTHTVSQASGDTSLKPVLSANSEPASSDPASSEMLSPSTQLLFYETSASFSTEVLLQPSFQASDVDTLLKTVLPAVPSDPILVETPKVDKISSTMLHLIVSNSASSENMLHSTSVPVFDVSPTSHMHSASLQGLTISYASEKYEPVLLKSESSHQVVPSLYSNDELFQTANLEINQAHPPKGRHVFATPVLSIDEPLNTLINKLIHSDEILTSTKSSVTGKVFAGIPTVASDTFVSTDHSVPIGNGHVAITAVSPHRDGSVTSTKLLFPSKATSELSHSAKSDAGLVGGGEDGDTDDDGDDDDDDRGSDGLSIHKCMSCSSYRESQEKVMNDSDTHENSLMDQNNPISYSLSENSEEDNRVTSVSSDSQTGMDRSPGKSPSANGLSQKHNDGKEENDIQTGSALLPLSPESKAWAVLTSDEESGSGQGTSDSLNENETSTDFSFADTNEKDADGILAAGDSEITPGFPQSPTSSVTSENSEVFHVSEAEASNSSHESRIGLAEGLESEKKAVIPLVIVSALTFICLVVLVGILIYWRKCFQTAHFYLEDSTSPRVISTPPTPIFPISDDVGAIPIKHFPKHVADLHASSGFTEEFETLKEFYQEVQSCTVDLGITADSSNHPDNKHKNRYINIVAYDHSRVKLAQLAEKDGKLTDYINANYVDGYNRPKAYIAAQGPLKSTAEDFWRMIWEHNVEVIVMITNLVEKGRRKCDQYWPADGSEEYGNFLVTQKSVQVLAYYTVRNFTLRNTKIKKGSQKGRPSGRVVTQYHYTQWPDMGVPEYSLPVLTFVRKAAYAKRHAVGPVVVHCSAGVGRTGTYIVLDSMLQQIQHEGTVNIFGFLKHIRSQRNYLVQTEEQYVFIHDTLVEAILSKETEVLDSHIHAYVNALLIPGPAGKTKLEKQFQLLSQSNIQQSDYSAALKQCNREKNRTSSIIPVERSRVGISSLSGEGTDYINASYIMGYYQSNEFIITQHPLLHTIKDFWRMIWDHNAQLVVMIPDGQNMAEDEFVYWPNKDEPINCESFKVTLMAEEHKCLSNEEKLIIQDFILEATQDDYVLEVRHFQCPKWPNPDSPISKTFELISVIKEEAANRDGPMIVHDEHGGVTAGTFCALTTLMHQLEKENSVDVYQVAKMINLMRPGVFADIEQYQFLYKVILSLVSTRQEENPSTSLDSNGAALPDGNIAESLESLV
Excerpt: as §1, §2

Measured: binding result

B1: LRFN5 extracellular domain (receptor, human, UniProt Q96NI6 18-529, looked up)
chain: QICPKRCVCQILSPNLATLCAKKGLLFVPPNIDRRTVELRLADNFVTNIKRKDFANMTSLVDLTLSRNTISFITPHAFADLRNLRALHLNSNRLTKITNDMFSGLSNLHHLILNNNQLTLISSTAFDDVFALEELDLSYNNLETIPWDAVEKMVSLHTLSLDHNMIDNIPKGTFSHLHKMTRLDVTSNKLQKLPPDPLFQRAQVLATSGIISPSTFALSFGGNPLHCNCELLWLRRLSREDDLETCASPPLLTGRYFWSIPEEEFLCEPPLITRHTHEMRVLEGQRATLRCKARGDPEPAIHWISPEGKLISNATRSLVYDNGTLDILITTVKDTGAFTCIASNPAGEATQIVDLHIIKLPHLLNSTNHIHEPDPGSSDISTSTKSGSNTSSSNGDTKLSQDKIVVAEATSSTALLKFNFQRNIPGIRMFQIQYNGTYDDTLVYRMIPPTSKTFLVNNLAAGTMYDLCVLAIYDDGITSLTATRVVGCIQFTTEQDYVRCHFMQSQFLGGTM
notes: extracellular domain; Streptavidin tetramer in cell assay; ECD-Fc prey in the variant screen; also called LFRN5
no binding: all assays above
